From article PMC4892509, “Binding of the Fkh1 Forkhead Associated Domain to a Phosphopeptide within the Mph1 DNA Helicase Regulates Mating-Type Switching in Budding Yeast” (PLoS Genetics, 2016)
Non-standard residues stand in square brackets, D forms with d. No end group written: not given here. *: point of attachment. 5FAM = O=C1OC2(c3ccc(O)cc3Oc3cc(O)ccc32)c2ccc(C(=O)*)cc21; pT = C[C@@H](OP(=O)(O)O)[C@H](N)C(=O)O; Ahx = NCCCCCC(=O)O

How the values were obtained:
[1] = biological target: T1, Fkh1-6xHis (Saccharomyces cerevisiae, UniProt P40466); test: Fluorescence anisotropy binding of Mph1-derived peptides to recombinant Fkh1-6xHis
T1 construct: C-terminally His-tagged full length Fkh1 protein was expressed from a pET28b expression vector in Rosetta E. coli; made in house; host or cells: Rosetta E. coli (pET28b)
T1 sequence (P40466 1-484): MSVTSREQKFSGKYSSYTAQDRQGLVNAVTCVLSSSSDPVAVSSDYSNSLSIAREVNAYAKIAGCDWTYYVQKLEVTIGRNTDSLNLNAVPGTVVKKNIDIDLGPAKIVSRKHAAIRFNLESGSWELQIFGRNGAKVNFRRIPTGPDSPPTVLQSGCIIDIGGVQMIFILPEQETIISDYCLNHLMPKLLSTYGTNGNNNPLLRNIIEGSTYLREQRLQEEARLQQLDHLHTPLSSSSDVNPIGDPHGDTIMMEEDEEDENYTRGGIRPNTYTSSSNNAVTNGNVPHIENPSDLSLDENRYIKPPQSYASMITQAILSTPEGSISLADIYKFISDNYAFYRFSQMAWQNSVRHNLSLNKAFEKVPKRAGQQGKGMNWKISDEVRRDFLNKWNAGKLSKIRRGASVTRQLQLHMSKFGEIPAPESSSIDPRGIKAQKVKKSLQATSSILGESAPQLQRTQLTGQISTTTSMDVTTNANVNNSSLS
Procedure: To this end, recombinant Fkh1-6xHis was purified from E. coli and its ability to bind an 18-residue peptide representing Mph1(772–789) was assessed by fluorescence anisotropy (Fig 6).
(B) Peptide binding assay of Fkh1-6xHis and Mph1-derived peptides using fluorescence anisotropy. Binding reactions contained the indicated concentration of purified His-tagged Fkh1 and 3 nM 5-carboxyfluorescein labeled Mph1-derived peptide (5cf-aha-[sequence]) with threonines phosphorylated or unmodified, as indicated.
Peptides (constant final concentration of 3 nM) were mixed with titrations of purified Fkh1-6xHis protein in binding buffer (50 mM HEPES pH 7.0, 200 mM KCl, 10% glycerol, 5 mM BME, 1 mM EDTA, 1 mM EGTA, 5 mM MgOAc, 0.02% NP-40, protease inhibitors (Calbiotech)). Polarization at each concentration was measured in triplicates in 384-well polystyrene black microplates (Thermo Fisher Scientific #262260) by a Biotek Synergy H4 multimode plate reader (light source: xenon flash, offset from top: 7 mm, sensitivity: 60%, excitation: 485/20 nm, emission: 528/20 nm, both parallel and perpendicular, normal read speed). Fraction bound (Fb) at each concentration was calculated based on the corresponding polarization values (P): Fbc = (Pc—Pmin) / (Pmax—Pmin), where Pmin is the polarization value of the no-protein control and Pmax is the polarization value of the saturation value for that peptide. […]

[2] = biological target: Fkh1 (UniProt P40466); test: fluorescence anisotropy titration
[3] = biological target: T2, Recombinant Fkh1-6xHis (S. cerevisiae, UniProt P40466 1-484); test: fluorescence polarisation; fluorescence anisotropy: 3 nM 5-carboxyfluorescein labeled peptide, titration of purified Fkh1-6xHis; 50 mM HEPES pH 7.0, 200 mM KCl, 10% glycerol, 5 mM BME, 1 mM EDTA, 1 mM EGTA, 5 mM MgOAc, 0.02% NP-40; Fb = [protein] / ([protein] + Kd); details: both partners purified
T2 construct: Fkh1, S. cerevisiae, full length; also called His-tagged Fkh1; purified Fkh1; source: Rosetta E. coli (pET28b), purified (nickel chromatography); not shown: 6xHis, C-terminal, kept
T2 sequence (looked up): T1 sequence (P40466 1-484)

`CC(C)C[C@H](NC(=O)[C@H](CO)NC(=O)[C@H](CO)NC(=O)[C@H](CO)NC(=O)[C@H](C)NC(=O)[C@H](CCC(=O)O)NC(=O)[C@H](CCC(=O)O)NC(=O)[C@@H](NC(=O)[C@H](CO)NC(=O)[C@H](CC(=O)O)NC(=O)[C@H](CC(N)=O)NC(=O)[C@H](CCC(=O)O)NC(=O)CCCCCNC(=O)c1ccc2c(c1)C(=O)OC21c2ccc(O)cc2Oc2cc(O)ccc21)[C@@H](C)O)C(=O)N[C@@H](CCC(=O)O)C(=O)N[C@H](C(=O)N[C@@H](CCC(=O)O)C(=O)N[C@@H](CC(=O)O)C(=O)N[C@@H](CCC(=O)O)C(=O)N[C@@H](CCC(=O)O)C(=O)O)[C@@H](C)O` [Non-phosphorylated] was tested, and the “fold reduced affinity for Fkh1 (non-phosphorylated vs peptide phosphorylated on both T776 and T785)” value ([1]; relative to peptide phosphorylated on both T776 and T785) was > 100 -fold.

In the case of `CC(C)C[C@H](NC(=O)[C@H](CO)NC(=O)[C@H](CO)NC(=O)[C@H](CO)NC(=O)[C@H](C)NC(=O)[C@H](CCC(=O)O)NC(=O)[C@H](CCC(=O)O)NC(=O)[C@@H](NC(=O)[C@H](CO)NC(=O)[C@H](CC(=O)O)NC(=O)[C@H](CC(N)=O)NC(=O)[C@H](CCC(=O)O)NC(=O)CCCCCNC(=O)c1ccc2c(c1)C(=O)OC21c2ccc(O)cc2Oc2cc(O)ccc21)[C@@H](C)OP(=O)(O)O)C(=O)N[C@@H](CCC(=O)O)C(=O)N[C@H](C(=O)N[C@@H](CCC(=O)O)C(=O)N[C@@H](CC(=O)O)C(=O)N[C@@H](CCC(=O)O)C(=O)N[C@@H](CCC(=O)O)C(=O)O)[C@@H](C)OP(=O)(O)O` [pT776 pT785], the “binding to purified Fkh1, result in words” value ([1]; 3 nM labeled peptide, pH 7.0) is reported as “bound purified Fkh1 efficiently”.

“Mph1 772-789 (from UniProt P40562) pT776 pT785 peptide” was tested, and the “binding against the reference” value ([2]; reference: pT776 peptide, sites T785) was “stronger” and the “binding against the reference” value ([2]; reference: pT785 peptide, sites T776) was “stronger”.

In the case of “Mph1 772-789 (from UniProt P40562) pT776 peptide”, the “binding against the reference” value ([2]; reference: unphosphorylated peptide, sites T776) is reported as “stronger”.

For “Mph1 772-789 (from UniProt P40562) pT785 peptide”, the “binding against the reference” value ([2]; reference: unphosphorylated peptide, sites T785) was “stronger”.

B1: Mph1(772–789) peptide phosphorylated on both T776 and T785 (peptide)
peptide: {5FAM-Ahx}-ENDS[pT]EEASSSLE[pT]EDEE
notes: Mph1, S. cerevisiae, 18-residue peptide representing Mph1(772–789); source: synthetic peptide
In the case of B1, the Kd [3] is reported as 2.2 µM.

B2: Mph1(772–789) peptide, non-phosphorylated (peptide)
peptide: {5FAM-Ahx}-ENDSTEEASSSLETEDEE
notes: as for B1
With B2 the Kd [3] was 271 µM.
